For three substances, binding signal, average lifetime of the high-FRET (wrapped, unbound) state and duration of the low-FRET (unwrapped) state, taken as NR5A2 dwell time results are on record in PMC11102866.

Data set [1] concerns the target NR5A2 wild type (Homo sapiens) (UniProt O00482). In words: smFRET. The following applies: EMSA: 20 mM Tris-HCl pH 7.5, 120 mM NaCl, 1 mM MgCl2, 10 uM ZnCl2, 1 mM DTT, 100 ug/ml BSA, room temperature, 30 min, 50 nM DNA or nucleosome.
Data set [2] has as its target NR5A2 D159A D159A (Homo sapiens) (UniProt O00482). In words: smFRET. The following applies: EMSA: 20 mM Tris-HCl pH 7.5, 120 mM NaCl, 1 mM MgCl2, 10 uM ZnCl2, 1 mM DTT, 100 ug/ml BSA, room temperature, 30 min, 50 nM DNA or nucleosome.
Data set [3] has as its target nucleosome reconstituted with Alexa-Fluor-647-labeled H2A-K119C–H2B, H3.3–H4 and DNA carrying the Nr5a2 motif (mouse) (UniProt P10853). Put plainly: FRET or BRET; single-molecule FRET (TIRF): nucleosomes held on the surface by biotin-streptavidin, Cy3 on the 5' end of 601 DNA next to the motif at SHL +5.5, Alexa Fluor 647 on H2A-K119C; NR5A2 flowed in at 0.1 or 0.5 uM (quantified at 0.1 uM); 50 mM Tris pH 7.6, 120 mM NaCl, 1 mM MgCl2, 10 uM ZnCl2, 10% glycerol, 1 mM DTT, 100 ug/ml BSA; 22.5 C; low-FRET state taken as NR5A2 dwell time, single exponential fits, three replicates.

Consider “601 nucleosome SHL +5.5 for smFRET, with linker DNA”, for which the binding signal is 20.3 s in data set [1]; 16.4 s in data set [1] (mean lifetime of low-FRET (unwrapped) state); 16.4 s in data set [2]; 9.19 s in data set [2] (mean lifetime of low-FRET (unwrapped) state, less stable than wild type).
For “human NR5A2 (from UniProt O00482 1-541) (natural protein)”, in data set [3], the average lifetime of the high-FRET (wrapped, unbound) state worked out at 20.3 s and the duration of the low-FRET (unwrapped) state, taken as NR5A2 dwell time came out at 16.4 s.
For the substance “human NR5A2-D159A (from UniProt O00482 1-541) (natural protein)”, in data set [3], the average lifetime of the high-FRET (wrapped, unbound) state was 16.4 s and the duration of the low-FRET (unwrapped) state, taken as NR5A2 dwell time was found to be 9.19 s.
